The values that follow come from the supplement of paper PMC10567573.

± gives the standard deviation.

The nature of this series: protein stability index of a GFP-peptide fusion (GPS, HEK-293T) (PSI 1-6); higher = more stable. Conditions: c terminus: a fixed tail appended.
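Further: 24-mer peptide tiles fused after GFP, lentivirally expressed, FACS-sorted into six equal bins by GFP/DsRed ratio, decoded by Illumina sequencing, PSI is the read-weighted mean bin number.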

Regarding KFSHSGRYMLTRDYLTVKVWDLNM [PPP2R2C], the protein stability index is, setting by setting: (treatment: DMSO) 2.35 ± 0.23; (treatment: MLN4924 1 uM, 8 h) 2.33 ± 0.31.
On the same counts, the results for SKRNIKKGAVPRSIPNLAEVKKKG [HDAC6] are 4.26 ± 0.47 and 4.46 ± 0.44.
On to VVGFDLELGQAVEVIYPQHSKLTD [DENND6A], for which the protein stability index is 2.03 ± 0.097 (treatment: DMSO) and 2.62 ± 0.3 (treatment: MLN4924 1 uM, 8 h).
On the same counts, the results for YKENFLKRFQLTKLPPYLIFCIKR [USP39] are 3.02 ± 0.77 and 2.82 ± 0.43.
On the same counts, the results for DRYIAICNPLRYSVLMGHGVCMGL [OR10K2] are 2.54 ± 0.27 and 2.43 ± 0.43.
On to IKECLSKGTFSDVTFKLDDGAISA [RHOBTB1], for which the protein stability index runs as follows: (treatment: DMSO) 3.67 ± 0.18; (treatment: MLN4924 1 uM, 8 h) 3.95 ± 0.19.
On the same counts, the results for FEYSTIKCRDLSALMHELSNDGAR [BTBD10] are 2.53 ± 0.31 and 2.57 ± 0.41.
On the same counts, the results for DSLHPRPPYLPLAVPEDLADRLVR [FUT8] are 4.14 ± 0.13 and 4.06 ± 0.14.
As to YSLELGKAIKQKLWEALCSQGAIS [C22orf31], the protein stability index reads like this: (treatment: DMSO) 2.4 ± 0.45; (treatment: MLN4924 1 uM, 8 h) 2.63 ± 0.29.
On the same counts, the results for CPQSLPCFEASDCKESSPMPVICG [NANOGP8] are 3.77 ± 0.18 and 3.89 ± 0.083.
On the same counts, the results for SQRAMLLQGTESLNRATQSIERSH [VTI1B] are 4.27 ± 0.13 and 4.35 ± 0.21.
On the same counts, the results for HPLAQNERCLHMFLQEEAIDRNYV [SNX12] are 3.17 ± 0.4 and 3.18 ± 0.28.
Regarding ITAGGENVPPIPVETLVKKKIPII [ACSBG2], the protein stability index reads like this: (treatment: DMSO) 3.71 ± 0.32; (treatment: MLN4924 1 uM, 8 h) 3.96 ± 0.34.
On the same counts, the results for ALSSPRSRKNATQPPNAEEESGSS [INTS3] are 5.24 ± 0.31 and 5.38 ± 0.24.
For RQAELLEKRLQEIEELEREAERKI [SRPK2], the protein stability index came out at 5.13 ± 0.32 (treatment: DMSO) and 5.18 ± 0.14 (treatment: MLN4924 1 uM, 8 h).
On the same counts, the results for GGTVKLADFGLARIYSYQMALTPV [CDK4] are 2.36 ± 0.27 and 2.17 ± 0.11.
Consider RASPTRTAPLPMPEGPEPAAPGKQ [ELOA2], for which the protein stability index is, setting by setting: (treatment: DMSO) 5.4 ± 0.14; (treatment: MLN4924 1 uM, 8 h) 5.66 ± 0.1.
On the same counts, the results for SLSDQMSVLQSVWMEVLVLGVAQR [ESRRA] are 3.33 ± 0.35 and 2.98 ± 0.46.
On the same counts, the results for YERTLGQYQYERYGAVELSGAGRR [IRX6] are 3.75 ± 0.36 and 3.81 ± 0.3.
On the same counts, the results for GKTFKQSSNLGQHQRIHTGEKPFE [ZNF232] are 4.46 ± 0.41 and 4.48 ± 0.17.
In the case of TSQGQVRMRLFGQRCQKCSWSQYE [RTP4], the protein stability index runs as follows: (treatment: DMSO) 2.4 ± 0.37; (treatment: MLN4924 1 uM, 8 h) 2.01 ± 0.39.
PGRGHTHAAQGGPLLCPGCQGQPQ [ELOA2]: the protein stability index reads like this: (treatment: DMSO) 4.38 ± 0.26; (treatment: MLN4924 1 uM, 8 h) 4.47 ± 0.14.
On the same counts, the results for MSDRRENDMSPSNNVVPIHVPPTT [RAB11A] are 4.67 ± 0.17 and 4.87 ± 0.12.
For KVTLRIRNVRFSDEGGFTCFFRDH [MOG], the protein stability index reads like this: (treatment: DMSO) 2.29 ± 0.5; (treatment: MLN4924 1 uM, 8 h) 2.21 ± 0.14.
On the same counts, the results for LTCNNYKNKMMVCQVGGIEALVRT [CTNNB1] are 2.32 ± 0.38 and 2.23 ± 0.56.
On the same counts, the results for QICRAQGLETLFSKAQELGGAGRE [ZSWIM9] are 3.64 ± 0.23 and 3.66 ± 0.26.
On the same counts, the results for PPTVSQTPVIAATPVPTITANVTS [BRD3] are 4.83 ± 0.12 and 4.76 ± 0.18.
Turning to DPHNSRRGFFFSHVGWLLVRKHPA [SCD], the protein stability index runs as follows: (treatment: DMSO) 2.33 ± 0.27; (treatment: MLN4924 1 uM, 8 h) 2.3 ± 0.35.
On the same counts, the results for LEEGSSFWNQGLTWKVLFCSMSAT [CLCN6] are 3.06 ± 0.55 and 2.63 ± 0.67.
On the same counts, the results for ERYEIDSLIGKGSFGQVVKAYDHQ [DYRK1B] are 3.92 ± 0.21 and 4.02 ± 0.17.
On the same counts, the results for IFCEEHFPVAEQDKLLKHMIIEHK [ZNF277] are 2.75 ± 0.23 and 3.01 ± 0.4.
Sequence GGLLSYDEGGITKQPPVTQSKTAS [FBF1] came in with a protein stability index (treatment: DMSO) of 4.96 ± 0.18 and a protein stability index (treatment: MLN4924 1 uM, 8 h) of 4.89 ± 0.33.
On the same counts, the results for YCAKLCEPQWFYEETESSDDVEVL [C8orf76] are 2.98 ± 0.67 and 3.6 ± 0.79.
For RMLEFDPAQRITLAEALLHPFFAG [CLK3], the protein stability index (treatment: DMSO) is 2.38 ± 0.25 and the protein stability index (treatment: MLN4924 1 uM, 8 h) was determined as 2.39 ± 0.19.
On the same counts, the results for RDTTGVSQMFPSSKARTKSLLGDD [FBF1] are 4.83 ± 0.056 and 4.82 ± 0.14.
On the same counts, the results for LSGASPFLGETKQETLTNISAVNY [DAPK3] are 3.73 ± 0.2 and 3.85 ± 0.25.
On the same counts, the results for LLLSILNPTRQDESIQRIAVHLCN [ZER1] are 2.75 ± 0.42 and 2.42 ± 0.45.
As for AANKGEEKKDDENIPMETEETHLE [SMARCE1], the protein stability index was 5.64 ± 0.33 (treatment: DMSO) and 5.34 ± 0.42 (treatment: MLN4924 1 uM, 8 h).
On the same counts, the results for PPLLGTFPRDHTSLALVQNGDVSA [ANKRD40] are 4.57 ± 0.21 and 4.4 ± 0.41.
In the case of KSPPQLRQFLPEEFMKTLEKTGPQ [DENND6A], the protein stability index was found to be 4.63 ± 0.3 (treatment: DMSO) and 4.43 ± 0.32 (treatment: MLN4924 1 uM, 8 h).
On the same counts, the results for GSNLDDAKGLAESLELPKAIQDQL [FANCE] are 5.08 ± 0.53 and 5.3 ± 0.33.
On the same counts, the results for MQENITKVIERGERLDELQDKSES [VAMP4] are 5.04 ± 0.37 and 5.05 ± 0.41.
On the same counts, the results for RAACFDGHLEVVRYLVGEHQADLE [FEM1A] are 3.31 ± 0.27 and 3.39 ± 0.25.
Consider FFGMAFNFIVNDSRKKPIWNVLMW [SOAT1], for which the protein stability index was determined as 2.6 ± 0.55 (treatment: DMSO) and 2.19 ± 0.73 (treatment: MLN4924 1 uM, 8 h).
On the same counts, the results for SPVTRTRSLSACNKRVGMYLEGFD [DLC1] are 3 ± 0.3 and 3.19 ± 0.3.
On to LGGFRHKVTGVEYHNAGTQTVPKR [IQUB], for which the protein stability index worked out at 4.03 ± 0.36 (treatment: DMSO) and 4.1 ± 0.3 (treatment: MLN4924 1 uM, 8 h).
Consider TSENLKLVHIVCHKKTTHKLNCDP [DFFB], for which the protein stability index turned out to be 2.81 ± 0.19 (treatment: DMSO) and 2.97 ± 0.21 (treatment: MLN4924 1 uM, 8 h).
Consider LDLAGNNIPGDVLRAVEQAMGHSQ [LRRC45], for which the protein stability index runs as follows: (treatment: DMSO) 4.45 ± 0.39; (treatment: MLN4924 1 uM, 8 h) 4.44 ± 0.28.
On the same counts, the results for HQRKYTQSFCGENIMMPMGGMMPP [ZNF207] are 2.34 ± 0.15 and 2.49 ± 0.16.
In the case of FFNTLHVGGTIRTCQKFLIQYNRR [POP5], the protein stability index runs as follows: (treatment: DMSO) 2.02 ± 0.19; (treatment: MLN4924 1 uM, 8 h) 2.06 ± 0.23.
The sequence SSNYFSPRESTDFSSSSQEAFAAS [ZBTB22] returned a protein stability index (treatment: DMSO) of 4.41 ± 0.17 and a protein stability index (treatment: MLN4924 1 uM, 8 h) of 4.41 ± 0.15.
For QTVDGKHQDLKYISPETMVALLTG [CDC25B], the protein stability index (treatment: DMSO) is 2.77 ± 0.43 and the protein stability index (treatment: MLN4924 1 uM, 8 h) worked out at 2.8 ± 0.33.
On the same counts, the results for LVWRNSIRSSFISSLSFFLKKMGK [FBXO39] are 2.65 ± 0.65 and 2.9 ± 0.46.
